The source of these data is the Human Domainome abundance scans (Beltran et al. 2025).

± gives the uncertainty stated by the source.

The labels stand for the following.
B1: WW domain-containing transcription regulator protein 1, residues 116 to 162; numbered along this chain, Q9GZV5 (parent)
chain: QSYDVTDELPLPPGWEMTFTATGQRYFLNHIEKITTWQDPRKAMNQP
B2: Protein S100-G, residues 1 to 79; numbered along this chain, P02633 (parent)
chain: MSAKKSPEELKGIFEKYAAKEGDPNQLSKEELKLLLQTEFPSLLKGPSTLDELFEELDKNGDGEVSFEEFQVLVKKISQ

Variants of B1 are the subject of the first data set. As to the kind of experiment: abundance fitness (aPCA) (normalised: wild type 0, dead -1); higher = more abundant; growth selection in yeast, the domain comes from the species named. Particulars: Homo sapiens.
On to L9G, for which the abundance fitness is -0.027 ± 0.03. Consider L9T, for which the abundance fitness was determined as 0.117 ± 0.045. Take L9V: the abundance fitness is 0.05 ± 0.034.

As for L9D, the abundance fitness stood at 0.028 ± 0.025. Turning to L9K, the abundance fitness is -0.064 ± 0.048. For L9I, the abundance fitness stood at 0.022 ± 0.05. For L9P, the abundance fitness was -0.001 ± 0.047. As to L9M, the abundance fitness is -0.009 ± 0.029. As to L9A, the abundance fitness turned out to be 0.044 ± 0.039. With L9E, the abundance fitness was -0.028 ± 0.034. L9N: the abundance fitness is -0.009 ± 0.048. L9Q: the abundance fitness is 0.022 ± 0.046. In the case of L9Y, the abundance fitness is -0.035 ± 0.037.

As for L9S, the abundance fitness is -0.003 ± 0.038. Take L9R: the abundance fitness is 0.027 ± 0.029. Regarding L9F, the abundance fitness was -0.082 ± 0.041. Still for that read-out and setting: as for L11V, the figure is -0.381 ± 0.033; as for L11A, -0.715 ± 0.038; as for L11C, -0.432 ± 0.049. Consider L11Y, for which the abundance fitness was -0.493 ± 0.049. As for L11G, the abundance fitness is -0.731 ± 0.029. As for L11K, the abundance fitness is -0.746 ± 0.086.

As to L11S, the abundance fitness is -0.609 ± 0.035. The same measure, in the same setting: the value for L11T was -0.548 ± 0.042. For L11W, the abundance fitness is -0.686 ± 0.033. With L11Q, the abundance fitness is -0.684 ± 0.075.

In the case of L11R, the abundance fitness was -0.847 ± 0.03. With L11P, the abundance fitness was -0.556 ± 0.044. In the case of L11F, the abundance fitness was -0.08 ± 0.038. For L11H, the abundance fitness is -0.676 ± 0.081. Still for that read-out and setting: as for L11M, the figure is -0.07 ± 0.038; as for L11N, -0.789 ± 0.13; as for L11D, -0.732 ± 0.048. For L11E, the abundance fitness is -0.767 ± 0.068. On the same count and under the same terms, the value for L11I was -0.337 ± 0.04; that for P12A was -0.467 ± 0.041. Take P12C: the abundance fitness was -0.716 ± 0.083. In the case of S2Y, the abundance fitness was -0.226 ± 0.07. On the same count and under the same terms, the value for S2E was -0.274 ± 0.055; that for S2W was -0.406 ± 0.062.

Take S2C: the abundance fitness was -0.192 ± 0.043. As to S2V, the abundance fitness is -0.148 ± 0.044. The same measure, in the same setting: as for S2A, the figure is -0.255 ± 0.04; as for S2M, -0.017 ± 0.033; as for S2K, -0.074 ± 0.065. As to S2F, the abundance fitness is -0.035 ± 0.055.

Consider S2H, for which the abundance fitness came to 0.149 ± 0.32.

On to S2P, for which the abundance fitness is -0.45 ± 0.066. Turning to S2Q, the abundance fitness is -0.167 ± 0.065.

Consider S2N, for which the abundance fitness turned out to be 0.361 ± 0.081. Consider S2L, for which the abundance fitness was -0.093 ± 0.04.

For the variant S2D, the abundance fitness was 0.057 ± 0.03. With S2I, the abundance fitness was -0.026 ± 0.071. With S2T, the abundance fitness was -0.092 ± 0.05. On the same count and under the same terms, as for S2G, the figure is -0.034 ± 0.027; as for P10E, -0.058 ± 0.027; as for P10R, -0.224 ± 0.028. As for P10F, the abundance fitness is -0.342 ± 0.038. The same measure, in the same setting: the value for P10C was -0.374 ± 0.044; that for P10K was -0.115 ± 0.035; that for P10S was -0.109 ± 0.025. As for P10Y, the abundance fitness is -0.351 ± 0.042. P10T: the abundance fitness is -0.045 ± 0.035. For P10W, the abundance fitness is -0.393 ± 0.037. For P10N, the abundance fitness is -0.129 ± 0.032. Regarding P10A, the abundance fitness is -0.088 ± 0.027. In the case of P10V, the abundance fitness was -0.188 ± 0.028. Consider P10H, for which the abundance fitness was -0.181 ± 0.053. The same measure, in the same setting: as for P10Q, the figure is -0.123 ± 0.048; as for P10L, -0.25 ± 0.024.

In the case of P10G, the abundance fitness was -0.12 ± 0.028. For P10I, the abundance fitness is -0.174 ± 0.03. For the variant P10D, the abundance fitness was -0.083 ± 0.043. As for P10M, the abundance fitness is -0.212 ± 0.036.

A further data set covers variants of B2. The data set is described as above. Conditions: Bos taurus.
As for MSAKKSPEELKGIFEKYAAKEGDPNQLSKEELKLLLQTEFPSLLKGPSTLDELFEELDKNGDGEVSFEEFQVLVKKIFQ [S78F], the abundance fitness was -0.25 ± 0.27. In the case of MSAKKSPEELKGIFEKYAAKEGDPNQLSKEELKLLLQTEFPSLLKGPSTLDELFEELDKNGDGEVSFEEFQVLVKKIYQ [S78Y], the abundance fitness was -1.23 ± 0.41. Take MSAKKSPEELKGIFEKYAAKEGDPNQLSKEELKLLLQTEFPSLLKGPSTLDELFEELDKNGDGEVSFEEFQVLVKKIPQ [S78P]: the abundance fitness was determined as 0.258 ± 0.41.

In the case of MSAKKSPEELKGIFEKYAAKEGDPNQLSKEELKLLLQTEFPSLLKGPSTLDELFEELDKNGDGEVSFEEFQVLVKKIGQ [S78G], the abundance fitness is -0.329 ± 0.47. As for MSAKKSPEELKGIFEKYAAKEGDPNQLSKEELKLLLQTEFPSLLKGPSTLDELFEELDKNGDGEVSFEEFQVLVKKIMQ [S78M], the abundance fitness is -0.049 ± 0.44. Still for that read-out and setting: the value for MSAKKSPEELKGIFEKYAAKEGDPNQLSKEELKLLLQTEFPSLLKGPSTLDELFEELDKNGDGEVSFEEFQVLVKKILQ [S78L] was -0.188 ± 0.28; that for MSAKKSPEELKGIFEKYAAKEGDPNQLSKEELKLLLQTEFPSLLKGPSTLDELFEELDKNGDGEVSFEEFQVLVKKIAQ [S78A] was 0.245 ± 0.41; that for MSAKKSPEELKGIFEKYAAKEGDPNQLSKEELKLLLQTEFPSLLKGPSTLDELFEELDKNGDGEVSFEEFQVLVKKRSQ [I77R] was -0.179 ± 0.065. For the variant MSAKKSPEELKGIFEKYAAKEGDPNQLSKEELKLLLQTEFPSLLKGPSTLDELFEELDKNGDGEVSFEEFQVLVKKQSQ [I77Q], the abundance fitness was -0.092 ± 0.066. As for MSAKKSPEELKGIFEKYAAKEGDPNQLSKEELKLLLQTEFPSLLKGPSTLDELFEELDKNGDGEVSFEEFQVLVKKWSQ [I77W], the abundance fitness is -0.176 ± 0.086. Regarding MSAKKSPEELKGIFEKYAAKEGDPNQLSKEELKLLLQTEFPSLLKGPSTLDELFEELDKNGDGEVSFEEFQVLVKKTSQ [I77T], the abundance fitness is -0.14 ± 0.064. As for MSAKKSPEELKGIFEKYAAKEGDPNQLSKEELKLLLQTEFPSLLKGPSTLDELFEELDKNGDGEVSFEEFQVLVKKYSQ [I77Y], the abundance fitness was -0.104 ± 0.073.

In the case of MSAKKSPEELKGIFEKYAAKEGDPNQLSKEELKLLLQTEFPSLLKGPSTLDELFEELDKNGDGEVSFEEFQVLVKKSSQ [I77S], the abundance fitness is -0.165 ± 0.064. Turning to MSAKKSPEELKGIFEKYAAKEGDPNQLSKEELKLLLQTEFPSLLKGPSTLDELFEELDKNGDGEVSFEEFQVLVKKVSQ [I77V], the abundance fitness is -0.158 ± 0.077. With MSAKKSPEELKGIFEKYAAKEGDPNQLSKEELKLLLQTEFPSLLKGPSTLDELFEELDKNGDGEVSFEEFQVLVKKISE [Q79E], the abundance fitness turned out to be 0.272 ± 0.15.

Take MSAKKSPEELKGIFEKYAAKEGDPNQLSKEELKLLLQTEFPSLLKGPSTLDELFEELDKNGDGEVSFEEFQVLVKKISM [Q79M]: the abundance fitness worked out at 0.026 ± 0.11.

On to MSAKKSPEELKGIFEKYAAKEGDPNQLSKEELKLLLQTEFPSLLKGPSTLDELFEELDKNGDGEVSFEEFQVLVKKISG [Q79G], for which the abundance fitness amounted to 0.074 ± 0.12. Still for that read-out and setting: as for MSAKKSPEELKGIFEKYAAKEGDPNQLSKEELKLLLQTEFPSLLKGPSTLDELFEELDKNGDGEVSFEEFQVLVKKISH [Q79H], the figure is -0.048 ± 0.095; as for MSAKKSPEELKGIFEKYAAKEGDPNQLSKEELKLLLQTEFPSLLKGPSTLDELFEELDKNGDGEVSFEEFQVLVKKISI [Q79I], -0.346 ± 0.13. On to MSAKKSPEELKGIFEKYAAKEGDPNQLSKEELKLLLQTEFPSLLKGPSTLDELFEELDKNGDGEVSFEEFQVLVKKISC [Q79C], for which the abundance fitness is -0.032 ± 0.16.

As to MSAKKSPEELKGIFEKYAAKEGDPNQLSKEELKLLLQTEFPSLLKGPSTLDELFEELDKNGDGEVSFEEFQVLVKKISP [Q79P], the abundance fitness was determined as 0.254 ± 0.09. Take MSAKKSPEELKGIFEKYAAKEGDPNQLSKEELKLLLQTEFPSLLKGPSTLDELFEELDKNGDGEVSFEEFQVLVKKISR [Q79R]: the abundance fitness came out at 0.16 ± 0.1. For MSAKKSPEELKGIFEKYAAKEGDPNQLSKEELKLLLQTEFPSLLKGPSTLDELFEELDKNGDGEVSFEEFQVLVKKISS [Q79S], the abundance fitness amounted to 0.041 ± 0.072. For MSAKKSPEELKGIFEKYAAKEGDPNQLSKEELKLLLQTEFPSLLKGPSTLDELFEELDKNGDGEVSFEEFQVLVKKIST [Q79T], the abundance fitness turned out to be 0.085 ± 0.078. As to MSAKKSPEELKGIFEKYAAKEGDPNQLSKEELKLLLQTEFPSLLKGPSTLDELFEELDKNGDGEVSFEEFQVLVKKISL [Q79L], the abundance fitness is -0.017 ± 0.086.

Consider MSAKKSPEELKGIFEKYAAKEGDPNQLSKEELKLLLQTEFPSLLKGPSTLDELFEELDKNGDGEVSFEEFQVLVKKISK [Q79K], for which the abundance fitness came out at 0.046 ± 0.12. Turning to MSAKKSPEELKGIFEKYAAKEGDPNQLSKEELKLLLQTEFPSLLKGPSTLDELFEELDKNGDGEVSFEEFQVLVKKISA [Q79A], the abundance fitness was 0.008 ± 0.088.

With MSAKKSPEELKGIFEKYAAKEGDPNQLSKEELKLLLQTEFPSLLKGPSTLDELFEELDKNGDGEVSFEEFQVLVKKISY [Q79Y], the abundance fitness is -0.148 ± 0.11. As for MSAKKSPEELKGIFEKYAAKEGDPNQLSKEELKLLLQTEFPSLLKGPSTLDELFEELDKNGDGEVSFEEFQVLVKKISN [Q79N], the abundance fitness was -0.154 ± 0.1.

For MSAKKSPEELKGIFEKYAAKEGDPNQLSKEELKLLLQTEFPSLLKGPSTLDELFEELDKNGDGEVSFEEFQVLVKKISW [Q79W], the abundance fitness is -0.086 ± 0.15. With MSAKKSPEELKGIFEKYAAKEGDPNQLSKEELKLLLQTEFPSLLKGPSTLDELFEELDKNGDGEVSFEEFQVLVKKISD [Q79D], the abundance fitness is -0.191 ± 0.14.

Take MSAKKSPEELKGIFEKYAAKEGDPNQLSKEELKLLLQTEFPSLLKGPSTLDELFEELDKNGDGEVSFEEFQVLVKKISV [Q79V]: the abundance fitness is -0.086 ± 0.1.
